Results published in patent US20190062438A1 (CSL, published 2019).

Experiments:
Experiment in all cases: SPR, kinetics, Fab over captured mutant
shCD131 V108A = biological target: T1, shCD131 V108A (human, UniProt P32927 17-438)
T1 construct: C-terminal 6xHis
T1 sequence: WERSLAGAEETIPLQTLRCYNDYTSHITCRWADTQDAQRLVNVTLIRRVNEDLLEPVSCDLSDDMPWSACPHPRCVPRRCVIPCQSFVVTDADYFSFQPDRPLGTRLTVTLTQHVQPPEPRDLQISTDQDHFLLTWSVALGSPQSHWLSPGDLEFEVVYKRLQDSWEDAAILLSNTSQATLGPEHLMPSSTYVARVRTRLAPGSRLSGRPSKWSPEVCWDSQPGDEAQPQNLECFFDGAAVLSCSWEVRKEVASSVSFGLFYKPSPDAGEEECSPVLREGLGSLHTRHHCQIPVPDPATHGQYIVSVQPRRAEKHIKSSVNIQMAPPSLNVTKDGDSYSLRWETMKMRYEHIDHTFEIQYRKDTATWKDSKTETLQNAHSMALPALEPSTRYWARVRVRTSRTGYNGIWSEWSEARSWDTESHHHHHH

shCD131 V104A = biological target: T2, shCD131 V104A (human, UniProt P32927 17-438)
T2 construct: C-terminal 6xHis
T2 sequence: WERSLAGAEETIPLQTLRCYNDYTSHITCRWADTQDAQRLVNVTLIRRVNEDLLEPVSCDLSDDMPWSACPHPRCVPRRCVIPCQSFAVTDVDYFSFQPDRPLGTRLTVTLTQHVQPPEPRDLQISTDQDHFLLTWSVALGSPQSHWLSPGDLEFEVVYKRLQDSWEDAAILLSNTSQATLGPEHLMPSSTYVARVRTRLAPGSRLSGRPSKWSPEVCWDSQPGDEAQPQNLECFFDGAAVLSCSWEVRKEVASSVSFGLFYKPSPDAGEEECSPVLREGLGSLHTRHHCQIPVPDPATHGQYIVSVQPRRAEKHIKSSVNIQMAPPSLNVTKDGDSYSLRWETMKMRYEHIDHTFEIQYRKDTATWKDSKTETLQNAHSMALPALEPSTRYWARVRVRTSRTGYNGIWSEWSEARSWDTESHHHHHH

shCD131 T419A = biological target: T3, shCD131 T419A (human, UniProt P32927 17-438)
T3 construct: C-terminal 6xHis
T3 sequence: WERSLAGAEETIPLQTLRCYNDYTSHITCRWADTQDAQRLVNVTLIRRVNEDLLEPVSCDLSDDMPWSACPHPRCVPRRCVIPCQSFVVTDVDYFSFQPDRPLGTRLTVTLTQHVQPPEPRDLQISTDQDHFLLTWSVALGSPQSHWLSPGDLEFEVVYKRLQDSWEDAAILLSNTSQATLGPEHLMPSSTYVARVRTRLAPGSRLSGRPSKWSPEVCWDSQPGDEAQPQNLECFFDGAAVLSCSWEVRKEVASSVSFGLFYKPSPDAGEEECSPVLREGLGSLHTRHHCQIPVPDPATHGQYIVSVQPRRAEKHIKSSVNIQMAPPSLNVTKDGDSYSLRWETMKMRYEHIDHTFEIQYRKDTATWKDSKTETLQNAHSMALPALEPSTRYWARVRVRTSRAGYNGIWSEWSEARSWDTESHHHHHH

shCD131 G420A = biological target: T4, shCD131 G420A (human, UniProt P32927 17-438)
T4 construct: C-terminal 6xHis
T4 sequence: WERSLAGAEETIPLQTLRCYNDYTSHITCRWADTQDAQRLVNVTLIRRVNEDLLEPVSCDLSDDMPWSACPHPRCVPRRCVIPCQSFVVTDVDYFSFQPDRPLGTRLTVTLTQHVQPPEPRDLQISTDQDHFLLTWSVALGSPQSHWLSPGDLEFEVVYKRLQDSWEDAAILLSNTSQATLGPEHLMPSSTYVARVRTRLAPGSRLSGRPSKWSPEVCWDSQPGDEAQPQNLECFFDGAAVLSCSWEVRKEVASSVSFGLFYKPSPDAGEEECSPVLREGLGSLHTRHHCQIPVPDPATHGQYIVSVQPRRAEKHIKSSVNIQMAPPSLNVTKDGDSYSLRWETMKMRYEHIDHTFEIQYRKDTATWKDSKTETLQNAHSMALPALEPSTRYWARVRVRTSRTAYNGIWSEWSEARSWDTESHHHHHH

Kd (shCD131 V108A): 83 nM
Kd (shCD131 V104A): 117 nM
Kd (shCD131 T419A): 53 nM
Kd (shCD131 G420A): 63 nM
B1: 9A2 Fab (Fab, V domains shown)
VH: EVQLLESGGGLVQPGGSLRLSCAASGFTFSHYHMLWVRQAPGKGLEWVSSIRSSGGFTYYADSVKGRFTISRDNSKNTLYLQMNSLRAEDTAVYYCARFYDSFFDIWGQGTMVTVSS
VL: DIQMTQSPSSVSASVGDRVTITCRASQGISSWLAWYQQKPGKAPKLLIYAASSLQSGVPSRFSGSGSGTDFTLTISSLQPEDFATYYCQQANSFPITFGQGTRLEIKR
notes: also called recombinant Fab of 9A2
